The text below walks through data of US12617818.

The target in this assay is Rabbit skeletal myosin (rabbit). Nature of the assay: cell-based or functional assay.

Chain of Rabbit skeletal myosin (Q28641 whole entry): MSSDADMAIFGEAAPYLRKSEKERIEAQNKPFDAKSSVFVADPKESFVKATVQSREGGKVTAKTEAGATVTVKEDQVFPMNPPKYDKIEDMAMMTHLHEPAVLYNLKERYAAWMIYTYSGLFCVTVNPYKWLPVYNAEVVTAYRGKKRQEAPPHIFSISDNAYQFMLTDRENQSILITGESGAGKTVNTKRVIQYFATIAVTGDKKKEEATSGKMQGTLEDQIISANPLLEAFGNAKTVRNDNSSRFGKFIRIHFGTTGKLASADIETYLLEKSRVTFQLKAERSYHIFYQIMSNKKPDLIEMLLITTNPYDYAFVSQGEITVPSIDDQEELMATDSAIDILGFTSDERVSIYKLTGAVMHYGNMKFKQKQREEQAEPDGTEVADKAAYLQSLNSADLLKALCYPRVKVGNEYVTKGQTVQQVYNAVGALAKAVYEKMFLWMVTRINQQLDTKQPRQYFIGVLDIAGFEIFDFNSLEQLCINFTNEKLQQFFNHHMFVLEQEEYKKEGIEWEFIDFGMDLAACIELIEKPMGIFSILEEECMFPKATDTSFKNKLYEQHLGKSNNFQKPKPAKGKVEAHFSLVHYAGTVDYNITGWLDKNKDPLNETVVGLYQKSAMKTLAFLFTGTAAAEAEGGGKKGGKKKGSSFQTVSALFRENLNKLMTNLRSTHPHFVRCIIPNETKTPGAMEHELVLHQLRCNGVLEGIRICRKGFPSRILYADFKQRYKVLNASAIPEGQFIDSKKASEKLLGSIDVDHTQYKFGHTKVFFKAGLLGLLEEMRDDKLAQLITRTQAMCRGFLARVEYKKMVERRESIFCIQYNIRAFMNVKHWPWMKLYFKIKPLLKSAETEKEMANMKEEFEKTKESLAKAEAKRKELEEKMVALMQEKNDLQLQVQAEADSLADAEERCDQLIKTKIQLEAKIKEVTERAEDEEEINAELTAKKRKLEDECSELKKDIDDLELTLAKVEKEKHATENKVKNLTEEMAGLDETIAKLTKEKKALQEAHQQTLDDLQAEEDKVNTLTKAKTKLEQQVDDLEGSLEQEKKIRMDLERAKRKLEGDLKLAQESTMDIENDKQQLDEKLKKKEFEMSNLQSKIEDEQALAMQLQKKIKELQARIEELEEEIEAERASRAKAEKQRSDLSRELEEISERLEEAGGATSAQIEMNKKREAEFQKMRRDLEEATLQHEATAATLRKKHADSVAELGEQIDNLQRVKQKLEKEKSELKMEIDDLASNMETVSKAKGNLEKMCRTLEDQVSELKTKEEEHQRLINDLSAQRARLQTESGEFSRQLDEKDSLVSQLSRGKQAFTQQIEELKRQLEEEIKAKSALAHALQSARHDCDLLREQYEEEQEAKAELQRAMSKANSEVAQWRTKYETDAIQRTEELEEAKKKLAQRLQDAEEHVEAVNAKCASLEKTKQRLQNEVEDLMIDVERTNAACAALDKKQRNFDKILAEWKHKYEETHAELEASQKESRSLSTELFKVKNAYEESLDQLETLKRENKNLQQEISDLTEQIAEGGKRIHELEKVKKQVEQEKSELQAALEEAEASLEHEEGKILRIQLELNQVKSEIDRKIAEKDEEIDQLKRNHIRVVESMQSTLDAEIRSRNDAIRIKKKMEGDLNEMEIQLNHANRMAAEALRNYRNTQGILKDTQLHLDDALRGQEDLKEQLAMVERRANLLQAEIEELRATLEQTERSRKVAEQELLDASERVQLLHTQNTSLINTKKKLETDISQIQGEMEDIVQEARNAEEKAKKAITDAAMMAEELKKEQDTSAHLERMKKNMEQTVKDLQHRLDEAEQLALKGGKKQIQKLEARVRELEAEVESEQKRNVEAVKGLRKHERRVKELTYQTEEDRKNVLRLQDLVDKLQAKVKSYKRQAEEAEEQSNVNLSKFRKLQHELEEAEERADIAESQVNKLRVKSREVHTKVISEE
Chain of Rabbit skeletal myosin (P02602 2-192, further chain): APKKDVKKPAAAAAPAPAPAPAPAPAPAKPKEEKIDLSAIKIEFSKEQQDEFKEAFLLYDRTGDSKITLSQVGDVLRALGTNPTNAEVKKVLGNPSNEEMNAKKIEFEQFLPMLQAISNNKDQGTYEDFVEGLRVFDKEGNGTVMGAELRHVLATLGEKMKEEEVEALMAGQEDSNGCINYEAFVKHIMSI
Chain of Rabbit skeletal myosin (P02608 2-170, further chain): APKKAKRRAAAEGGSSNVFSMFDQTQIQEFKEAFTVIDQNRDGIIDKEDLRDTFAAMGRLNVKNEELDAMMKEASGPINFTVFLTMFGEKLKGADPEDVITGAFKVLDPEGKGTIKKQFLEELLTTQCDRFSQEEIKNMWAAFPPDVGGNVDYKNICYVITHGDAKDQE

“Myosin binding protein C (MyBPC), whole length skeletal”: the in vitro motility: reduction of the motility of actin thin filaments over skeletal myosin thick filaments treated with MyBPC was 22%.
Substance Rabbit skeletal myosin showed a GFS: force at an uncoiled length of 138 nm, control without antibody of 4.8 pN; a GFS: force to uncoil the myosin molecule for a length of 50 nm, no stabilizer (control) of 3.62 pN; a GFS: force to uncoil the myosin molecule for a length of 60 nm, tethered by S1 heads to G-actin (control) of 2.67 pN; a GFS: force to uncoil the myosin molecule to a length of 100 nm, no destabilizer (control) of 4.92 pN.
